# In patent US20250090676A1:
# Target: human folate receptor alpha on cells (human) (UniProt P15328)
# Experiment: cell-based or functional assay
# human folate receptor alpha on cells (human), sequence (P15328 25-234 limits assumed): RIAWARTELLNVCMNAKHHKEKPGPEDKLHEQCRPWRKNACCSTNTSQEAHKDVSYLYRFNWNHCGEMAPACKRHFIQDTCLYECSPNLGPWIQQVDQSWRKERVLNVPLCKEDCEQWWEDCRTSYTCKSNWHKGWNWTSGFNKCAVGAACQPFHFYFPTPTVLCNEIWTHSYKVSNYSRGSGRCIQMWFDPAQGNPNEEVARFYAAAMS
substance,measurement,value
ADC Molecule 21 (Mov19-sulfo-SPDB-DM4) (antibody),fold shift of cell killing EC50 on Igrov1 cells on addition of naked antibody,3 fold
